No end group written: not given here.

In experiment [1] the target is T1, estrogen receptor (ER) α as a carboxy-terminal fusion to the Gal4-activation domain (yeast, UniProt P03372 1-595, limits assumed). Further: test concentration or dose not given here.
T1 sequence (looked up): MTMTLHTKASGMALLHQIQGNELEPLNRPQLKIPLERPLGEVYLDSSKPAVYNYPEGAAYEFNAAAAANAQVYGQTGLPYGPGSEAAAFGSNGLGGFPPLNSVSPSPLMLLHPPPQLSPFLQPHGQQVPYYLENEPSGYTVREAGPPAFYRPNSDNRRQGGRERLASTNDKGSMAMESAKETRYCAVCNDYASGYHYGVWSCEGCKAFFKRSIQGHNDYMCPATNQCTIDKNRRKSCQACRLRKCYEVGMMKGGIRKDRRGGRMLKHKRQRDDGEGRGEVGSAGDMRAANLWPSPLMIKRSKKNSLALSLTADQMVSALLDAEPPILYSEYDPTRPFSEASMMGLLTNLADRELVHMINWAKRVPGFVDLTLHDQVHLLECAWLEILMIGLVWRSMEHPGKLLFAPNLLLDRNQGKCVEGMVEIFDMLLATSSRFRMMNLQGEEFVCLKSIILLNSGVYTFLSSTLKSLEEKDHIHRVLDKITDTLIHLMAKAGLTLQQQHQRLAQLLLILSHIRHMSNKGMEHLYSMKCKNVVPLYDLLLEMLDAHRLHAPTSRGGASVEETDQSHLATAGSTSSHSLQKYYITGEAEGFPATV
Briefly: cell-based or functional assay.

Experiment [2] deals with T2, ER α (UniProt P03372 1-595, limits assumed).
T2 construct: also called estrogen receptor α; ERα-ERE
T2 sequence (looked up): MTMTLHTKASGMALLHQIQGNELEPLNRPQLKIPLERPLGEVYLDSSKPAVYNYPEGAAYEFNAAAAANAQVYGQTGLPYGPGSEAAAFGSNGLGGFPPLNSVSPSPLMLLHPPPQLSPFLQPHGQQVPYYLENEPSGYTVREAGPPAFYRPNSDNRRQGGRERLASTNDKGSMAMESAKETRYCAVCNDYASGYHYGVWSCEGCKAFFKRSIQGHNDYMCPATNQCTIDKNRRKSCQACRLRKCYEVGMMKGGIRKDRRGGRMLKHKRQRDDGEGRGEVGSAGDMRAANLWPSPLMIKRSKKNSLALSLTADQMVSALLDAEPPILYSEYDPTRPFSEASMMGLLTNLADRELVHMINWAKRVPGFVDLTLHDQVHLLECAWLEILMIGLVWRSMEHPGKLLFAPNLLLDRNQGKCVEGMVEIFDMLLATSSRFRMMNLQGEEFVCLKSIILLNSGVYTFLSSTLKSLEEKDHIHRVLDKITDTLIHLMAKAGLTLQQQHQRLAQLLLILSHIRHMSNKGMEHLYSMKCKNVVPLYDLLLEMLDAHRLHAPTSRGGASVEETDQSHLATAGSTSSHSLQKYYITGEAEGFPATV
Nature of the experiment: phage isolated on ERα on plastic; ICI 182,780.

For experiment [3], the target named is T2, ER α. Briefly: phage isolated on ERα-ERE; Buffer.

B1: B6C4 (peptide)
chain: MKLLSSIEQACDICRLKKLKCSKEKPKCAKCLKNNWECRYSPKTKRSPLTRAHLTEVESRLERLEQLFLLIFPREDLDMILKMDSLQDIKALLTGLFVQDNVNKDAVTDRLASVETDMPLTLRQHRISATSSSEESSNKGQRQLTVSEFDRSSILVSLLSMVETLDLQPS
For B1, the “Fold Induction (ligand-induced β-galactosidase, two-hybrid)” value (“Fold Induction” for short) in experiment [1] is 2.5 fold.

B2: 2PI (peptide)
peptide: SSYWDGSWRRKETCVSCSR
In the case of B2, the binding result in experiment [2] is on record as “binds”.

B3: 1PI (peptide)
peptide: SSSTPGWWEWDWASR
Turning to B3, in experiment [2], the binding result is “binds”.

B4: 1B (peptide)
peptide: SSRIADLFWRLEPSR
In the case of B4, the binding result in experiment [3] is given as “binds”.

B5: 3B (peptide)
peptide: SSRPDAAFFGAKLSR
On to B5, for which, in experiment [3], the binding result is recorded as “binds”.

B6: B6A1 (peptide)
chain: MKLLSSIEQACDICRLKKLKCSKEKPKCAKCLKNNWECRYSPKTKRSPLTRAHLTEVESRLERLEQLFLLIFPREDLDMILKMDSLQDIKALLTGLFVQDNVNKDAVTDRLASVETDMPLTLRQHRISATSSSEESSNKGQRQLTVSEFTGSRLLLKLLRFPDSSTCSQA
For the molecule B6, in experiment [1], the “Fold Induction” value turned out to be 3.5 fold.

B7: 9B (peptide)
peptide: SRNWDWAALELLPYPHPSR
Regarding B7, the binding result in experiment [3] was “binds”.

B8: 5B (peptide)
peptide: SSRPTAEWFRENLSR
As for B8, the binding result in experiment [3] was “binds”.

B9: 7B (peptide)
peptide: SRSYHGEWGVWTLSR
For B9, the binding result in experiment [3] is “binds”.

B10: 6B (peptide)
peptide: SRWWDTSWWLEELSR
On to B10, for which the binding result in experiment [3] is listed as “binds”.

B11: B3E2 (peptide)
chain: MKLLSSIEQACDICRLKKLKCSKEKPKCAKCLKNNWECRYSPKTKRSPLTRAHLTEVESRLERLEQLFLLIFPREDLDMILKMDSLQDIKALLTGLFVQDNVNKDAVTDRLASVETDMPLTLRQHRISATSSSEESSNKGQRQLTVSEFGGSVLLRELLCCYDALEPTTTR
As to B11, the “Fold Induction” value in experiment [1] is 3.5 fold.

B12: B5H10 (peptide)
chain: MKLLSSIEQACDICRLKKLKCSKEKPKCAKCLKNNWECRYSPKTKRSPLTRAHLTEVESRLERLEQLFLLIFPREDLDMILKMDSLQDIKALLTGLFVQDNVNKDAVTDRLASVETDMPLTLRQHRISATSSSEESSNKGQRQLTVSEFSPPSSLLALLLGGKSLEPLPIRYKNVKRQFTSNSRGSVDLQPS
Take B12: the “Fold Induction” value in experiment [1] worked out at 4.5 fold.

B13: 10B (peptide)
peptide: SSDWCFGWGGWCASEAVSR
modifications: not fully specified; cysteine pairing not given here
With B13, in experiment [3], the binding result was “binds”.

B14: B1A1 (peptide)
chain: MKLLSSIEQACDICRLKKLKCSKEKPKCAKCLKNNWECRYSPKTKRSPLTRAHLTEVESRLERLEQLFLLIFPREDLDMILKMDSLQDIKALLTGLFVQDNVNKDAVTDRLASVETDMPLTLRQHRISATSSSEESSNKGQRQLTVSEFCPVGLLVHLLMQ
On to B14, for which the “Fold Induction” value in experiment [1] is 11 fold.

B15: B1G8 (peptide)
chain: MKLLSSIEQACDICRLKKLKCSKEKPKCAKCLKNNWECRYSPKTKRSPLTRAHLTEVESRLERLEQLFLLIFPREDLDMILKMDSLQDIKALLTGLFVQDNVNKDAVTDRLASVETDMPLTLRQHRISATSSSEESSNKGQRQLTVSEFTSVSRLVTLLLQ
B15: the “Fold Induction” value in experiment [1] amounted to 6 fold.

B16: 4B (peptide)
peptide: SSRPSPSFWEKQLSR
In the case of B16, the binding result in experiment [3] is “binds”.

Source of the values: patent publication US20040043420A1, “Method of identifying conformation-sensitive binding peptides and uses thereof” (priority 2003, published 2004).
